Literature values as cited in article PMC5729051.
pKd: −log10 of the molar value.

Biological target: amyloid-beta oligomer (Homo sapiens) (UniProt P05067)

With “Cellular Prion Protein (PrPC) (from UniProt P04156)” as the substance, how does the pKd read?
Its pKd is 9.40.
